In patent US20250074974A1 (KANAPH THERAPEUTICS, published 2025):

B1: PRO236 (bispecific antibody, human IgG1, kappa, L234A L235A, N297G)
heavy: EVQLVESGGGLVQPGGSLRLSCAASGFTFSSYWMTWVRQAPGKGLEWVSSIKIKPDGYAASVKGRFTISRDNSKNTLYLQMNSLRAEDTAVYYCARLFYQYFARMDYWGQGTLVTVSSASTKGPSVFPLAPSSKSTSGGTAALGCLVKDYFPEPVTVSWNSGALTSGVHTFPAVLQSSGLYSLSSVVTVPSSSLGTQTYICNVNHKPSNTKVDKRVEPKSCDKTHTCPPCPAPEAAGGPSVFLFPPKPKDTLMISRTPEVTCVVVAVSHEDPEVKFNWYVDGVEVHNAKTKPREEQYGSTYRVVSVLTVLHQDWLNGKEYKCKVSNKALPAPIEKTISKAKGQPREPQVYTLPPSREEMTKNQVSLTCLVKGFYPSDIAVEWESNGQPENNYKTTPPVLDSDGSFFLYSKLTVDKSRWQQGNVFSCSVMHEALHNHYTQKSLSLSPGGGGGSGGGGSSDTGRPFVEMYSEIPEIIHMTEGRELVIPCRVTSPNITVTLKKFPLDTLIPDGKRIIWDSRKGFIISNATYKEIGLLTCEATVNGHLYKTNYLTHRQTNTIIDVVLSPSHGIELSVGEKLVLNCTARTELNVGIDFNWEYPSSKHQHKKLVNRDLKTQSGSEMKKFLSTLTIDGVTRSDQGLYTCAASSGLMTKKNSTFVRVHEK
light: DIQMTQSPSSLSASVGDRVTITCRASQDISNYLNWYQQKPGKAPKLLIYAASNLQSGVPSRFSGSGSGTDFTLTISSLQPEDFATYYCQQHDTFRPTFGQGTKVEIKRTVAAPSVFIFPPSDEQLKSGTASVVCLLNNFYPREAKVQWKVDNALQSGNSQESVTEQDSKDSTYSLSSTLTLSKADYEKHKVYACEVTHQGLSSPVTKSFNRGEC
notes: Purified as a fusion protein dimer
B2: PRO237 (bispecific antibody, human IgG1, kappa, L234A L235A, N297G)
heavy: EVQLVQSGAEVKKPGASVKVSCKASGYTFTGYYINWVRQAPGQGLEWMGIISPNQGTTGYAQKFQGRVTMTRDTSISTAYMELSSLRSEDTAVYYCARGNYDHLDYWGQGTLVTVSSASTKGPSVFPLAPSSKSTSGGTAALGCLVKDYFPEPVTVSWNSGALTSGVHTFPAVIQSSGLYSLSSVVTVPSSSLGTQTYICNVNHKPSNTKVDKRVEPKSCDKTHTCPPCPAPEAAGGPSVFLFPPKPKDTLMISRTPEVTCVVVAVSHEDPEVKFNWYVDGVEVHNAKTKPREEQYGSTYRVVSVLTVLHQDWLNGKEYKCKVSNKALPAPIEKTISKAKGQPREPQVYTLPPSREEMTKNQVSLTCLVKGFYPSDIAVEWESNGQPENNYKTTPPVLDSDGSFFLYSKLTVDKSRWQQGNVFSCSVMHEALHNHYTQKSLSLSPGGGGGSGGGGSSDTGRPFVEMYSEIPEIIHMTEGRELVIPCRVTSPNITVTLKKFPLDTLIPDGKRIIWDSRKGFIISNATYKEIGLLTCEATVNGHLYKTNYLTHRQTNTIIDVVLSPSHGIELSVGEKLVLNCTARTELNVGIDFNWEYPSSKHQHKKLVNRDLKTQSGSEMKKFLSTLTIDGVTRSDQGLYTCAASSGLMTKKNSTFVRVHEK
light: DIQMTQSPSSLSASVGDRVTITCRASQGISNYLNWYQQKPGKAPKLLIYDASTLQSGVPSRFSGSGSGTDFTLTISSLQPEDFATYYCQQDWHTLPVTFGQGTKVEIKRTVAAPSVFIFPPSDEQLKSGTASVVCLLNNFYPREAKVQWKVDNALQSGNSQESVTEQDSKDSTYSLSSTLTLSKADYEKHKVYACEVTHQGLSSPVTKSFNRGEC
notes: as for B1
B3: PRO238 (bispecific antibody)
heavy: EVQLVESGGGLVQPGGSLRLSCAASGFSFTSSSVSWVRQAPGKGLEWVGLIYPYNGFNYYADSVKGRFTISADTSKNTAYLQMNSLRAEDTAVYYCARNALYGSGGYYAMDYWGQGTLVTVSSASTKGPSVFPLAPSSKSTSGGTAALGCLVKDYFPEPVTVSWNSGALTSGVHTFPAVIQSSGLYSLSSVVTVPSSSLGTQTYICNVNHKPSNTKVDKRVEPKSCDKTHTCPPCPAPEAAGGPSVFLFPPKPKDTLMISRTPEVTCVVVAVSHEDPEVKFNWYVDGVEVHNAKTKPREEQYGSTYRVVSVLTVLHQDWLNGKEYKCKVSNKALPAPIEKTISKAKGQPREPQVYTLPPSREEMTKNQVSLTCLVKGFYPSDIAVEWESNGQPENNYKTTPPVLDSDGSFFLYSKLTVDKSRWQQGNVFSCSVMHEALHNHYTQKSLSLSPGGGGGSGGGGSSDTGRPFVEMYSEIPEIIHMTEGRELVIPCRVTSPNITVTLKKFPLDTLIPDGKRIIWDSRKGFIISNATYKEIGLLTCEATVNGHLYKTNYLTHRQTNTIIDVVLSPSHGIELSVGEKLVLNCTARTELNVGIDFNWEYPSSKHQHKKLVNRDLKTQSGSEMKKFLSTLTIDGVTRSDQGLYTCAASSGLMTKKNSTFVRVHEK
light: DIQMTQSPSSLSASVGDRVTITCRASQDVSTAVAWYQQKPGKAPKLLIYSASFLYSGVPSRFSGSGSGTDFTLTISSLQPEDFATYYCQQSYATLPTFEQGTKVEIKRTVAAPSVFIFPPSDEQLKSGTASVVCLLNNFYPREAKVQWKVDNALQSGNSQESVTEQDSKDSTYSLSSTLTLSKADYEKHKVYACEVTHQGLSSPVTKSFNRGEC
notes: as for B1
B4: PRO241 (bispecific antibody, IgG1)
chain: SDTGRPFVEMYSEIPEIIHMTEGRELVIPCRVTSPNITVTLKKFPLDTLIPDGKRIIWDSRKGFIISNATYKEIGLLTCEATVNGHLYKTNYLTHRQTNTIIDVVLSPSHGIELSVGEKLVLNCTARTELNVGIDFNWEYPSSKHQHKKLVNRDLKTQSGSEMKKFLSTLTIDGVTRSDQGLYTCAASSGLMTKKNSTFVRVHEKGGGGSDKTHTCPPCPAPEAAGGPSVFLFPPKPKDTLMISRTPEVTCVVVAVSHEDPEVKFNWYVDGVEVHNAKTKPREEQYGSTYRVVSVLTVLHQDWLNGKEYKCKVSNKALPAPIEKTISKAKGQPREPQVYTLPPSREEMTKNQVSLTCLVKGFYPSDIAVEWESNGQPENNYKTTPPVLDSDGSFFLYSKLTVDKSRWQQGNVFSCSVMHEALHNHYTQKSLSLSPGGGGGSGGGGSGGGGSEVQLVQSGAEVKKPGASVKVSCKASGYTFTGYYINWVRQAPGQGLEWMGIISPNQGTTGYAQKFQGRVTMTRDTSISTAYMELSSLRSEDTAVYYCARGNYDHLDYWGQGTLVTVSSGGGGSGGGGSGGGGSGGGGSDIQMTQSPSSLSASVGDRVTITCRASQGISNYLNWYQQKPGKAPKLLIYDASTLQSGVPSRFSGSGSGTDFTLTISSLQPEDFATYYCQQDWHTLPVTFGQGTKVEIK
notes: as for B1
B5: PRO242 (bispecific antibody, IgG1)
chain: SDTGRPFVEMYSEIPEIIHMTEGRELVIPCRVTSPNITVTLKKFPLDTLIPDGKRIIWDSRKGFIISNATYKEIGLLTCEATVNGHLYKTNYLTHRQTNTIIDVVLSPSHGIELSVGEKLVLNCTARTELNVGIDFNWEYPSSKHQHKKLVNRDLKTQSGSEMKKFLSTLTIDGVTRSDQGLYTCAASSGLMTKKNSTFVRVHEKGGGGSDKTHTCPPCPAPEAAGGPSVFLFPPKPKDTLMISRTPEVTCVVVAVSHEDPEVKFNWYVDGVEVHNAKTKPREEQYGSTYRVVSVLTVLHQDWLNGKEYKCKVSNKALPAPIEKTISKAKGQPREPQVYTLPPSREEMTKNQVSLTCLVKGFYPSDIAVEWESNGQPENNYKTTPPVLDSDGSFFLYSKLTVDKSRWQQGNVFSCSVMHEALHNHYTQKSLSLSPGGGGGSGGGGSGGGGSEVQLVESGGGLVQPGGSLRLSCAASGFSFTSSSVSWVRQAPGKGLEWVGLIYPYNGFNYYADSVKGRFTISADTSKNTAYLQMNSLRAEDTAVYYCARNALYGSGGYYAMDYWGQGTLVTVSSGGGGSGGGGSGGGGSGGGGSDIQMTQSPSSLSASVGDRVTITCRASQDVSTAVAWYQQKPGKAPKLLIYSASFLYSGVPSRFSGSGSGTDFTLTISSLQPEDFATYYCQQSYATLPTFEQGTKVEIK
notes: as for B1

Biological target: T1, human VEGF165 protein (human, UniProt P15692-4 27-191)
T1 construct: Immobilised on the ELISA plate
T1 sequence (P15692 other isoform, or with tags, fused parts or gaps limits assumed): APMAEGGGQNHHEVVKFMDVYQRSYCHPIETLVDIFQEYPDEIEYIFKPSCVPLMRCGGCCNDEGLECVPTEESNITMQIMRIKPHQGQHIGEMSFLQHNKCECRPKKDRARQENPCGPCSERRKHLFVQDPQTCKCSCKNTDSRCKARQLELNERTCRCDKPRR
Experiment: ELISA, human VEGF165 immobilised on plate
From the text: Next, the anti-human immunoglobulin G antibody and the anti-horseradish peroxidase (HRP) antibody were sequentially allowed to bind.

Binding result, binds:
B1
B2
B3
B4
B5
